The text below walks through data of patent US20240043505A1 (UNIVERSITY OF PITTSBURGH OF THE COMMONWEALTH SYSTEM OF …, published 2024).

B1: Nb90 (VHH)
VHH: HVQLVESGGGLVQAGGSLRLSCAVSGRTVSSYVMGWFRQAPGKEREFVAGIGRTGMTITADSVKGRFTISRDNAKNLVYLQMNSLKSEDTAVYWCAAGVRDFAPRIDSYDYWGQGTQVTVSS
B2: Nb46 (VHH)
VHH: QVQLVESGGGLVQAGGSLRLSCAVSGSTLGINAIGWYRQPPGKQRELVASISSLGTTLYAESVKGRFAISRDNAKNTGYLQMNSLKPDDTAVYYCNMRTPYMRDYWGQGTQVTVSS
B3: Nb42 (VHH)
VHH: HVQLVESGGGLVQAGESLRLSCVASGSIFSINAMGWFRQAPGKQRELVASISNIGTTIYAESVKGRFTISRDNAKNTADLQMNSLKPEDTAIYYCNLRQGCSYNGCDEYWGQGTQVTVSS
B4: Nb11 (VHH)
VHH: HVQLVESGGGLVQAGGSLRLSCAVSGASAERVGWFRRAPGKEREFVAAIGANGGSTNYLDSVKGRFTISRDNAKNTVYLQMNSLKPQDTAVYYCAARNLETFDYTYWGRGTQVTVSS
B5: Nb78 (VHH)
VHH: B4 VHH with H1Q, V24I, E30N, N52S, S55M, L99I, F102A, D103E, R109Q
B6: Nb55 (VHH)
VHH: DVQLVESGGGLVQAGGSLRLSCAASGRTFGSTMAWFRQAPGKERDFVAAITWSADRISYADSVKGRFTISRDNDKNIVHLQMNSLKPEDTAVYVCAARASSNTYDDPRSFAFWGQGTQVTVSS
B7: Nb99 (VHH)
VHH: QVQLVESGGGLVQTGGSLRLSCAASGSTRSIWYSGWYRQAPGKQRELVASLTSGGTTYYPDSMKGRFTISGSSGLNMVYLQMNSLRPEDTAVYSCNVRTGSGVYWGQGTQVTVSS
B8: Nb9 (VHH)
VHH: HVQLVESGGGLVQTGGSLRLSCAFSGYTFSTFPTAWFRQAPGKEREFVAGIRWNGGSRDYTEYADFVKGRFTISRDNAKNMIYLQMISLKPEDTALYYCAASHGVVDGTSVNGYRYWGQGTQVTVSS
B9: Nb96 (VHH)
VHH: HVQLVESGGGLVQAGDSLRLSCAASGRDFSSYAMGWFRQAPGKEREFVGVISSGDVGTFYEDSVKGRFTISRDDAKNTVDLQMNSLKPEDTAVYYCAAALYVTSTRGSYAYWGQGTQVTVSS
B10: Nb82 (VHH)
VHH: DVQLVESGGGLVQAGGSLGLSCAASGSIFRLTAMGWYRQAPGKQRDLVTTITSAGIPHYADSVKGRFTISRDNAKNTVYLQMNGLKPEDTAVYYCYANTLNSQLLPRAYWGQGTQVTVSS
B11: Nb63 (VHH)
VHH: QVQLVESGGGLVQAGGSLRLSCVASGSGFEPNAMGWYRQAPGKQRELVAGITSGGNANYADSVKGRFTISRDNVKNTVYLQMNSLKPEDTAVYYCQGPACSGSGCRNYWGQGTQVTVSS
B12: Nb107 (VHH)
VHH: HVQLVESGGGLVQAGGSLRLSCAASGRAIGIHRMAWFRQAPGKERAFVAAIQWTGDMPTYADSLKGRFTISADNAKNTVSLQMTSLKPDDTAVYYCAARSATTALYDYWGQGTQVTVSS
B13: Nb39 (VHH)
VHH: QVQLVESGGGLVQAGGSLRLSCAASGRTFRFSAIDWYRQAPGQQREFVASISTSGRISYGHFVKGRFTISRDNAKNTMYLQMNSLKPEDTAVYYCHLAQPDVFGGGDYWGQGTQVTVSS
B14: Nb66 (VHH)
VHH: HVQLVESGGGLVQAGGSLRLSCAASGRTFSVNSIAWFRQAPGKEREFVATINWSGGDIYYADSVKGRFTISRDNGKNTVYLQMNSLKPTDTAVYYCAAARFYGRSIAQDYDSWGQGTQVTVSS
B15: Nb76 (VHH)
VHH: DVQLVESGGGLVQAGGSLRLSCAVSGRTFSISTMGWFRQAPGKERLFVAGITWHDGSTNYADSVKGRFTISRDNAKNTVYLQMNSLKPEDTALYYCAARKSINYVQEYDYWGRGTQVTVSS
B16: Nb68 (VHH)
VHH: QVQLVESGGGLVQAGGSLRLSCAASGGTLRSYNMGWFRQGPGKEREFVAAISWTGLGTYYGDSVKGRFTISRDVIKNTLYLQMDSLKPEDTAIYYCAADSSTSRLHSAGSDYRYWGQGTQVTVSS
B17: Nb60 (VHH)
VHH: HVQLVESGGGLVQAGDSLRLSCAASERTNINYAMGWFRQAPGKERDFVAAIGWNGSIIKYAESVKGRFTISRDDAKNTVSLQMNSLKPEDTAVYYCAARIGSIANLQPREYEFAYWGQGTQVTVSS
B18: Nb48 (VHH)
VHH: HVQLVESGGGLVQAGGSLRLSCAASGSIFRHYNMGWFRQAPGKEREFVSAISWTNIGTYYADSVKGRFSISRDNNRNTAYLEMNSLKPEDTAVYYCAADRSEFGSRLYSDENEYDYWGQGTQVTVSS
B19: Nb97 (VHH)
VHH: HVQLVESGGGLVQAGGSLRLSCAAPGRTFSTSAMGWFRQAPGKEREFVAAIDWSNTNIHYADTVKGRFTISTDTAKNTVYLQMNNLKPEDTAVYYCAQGGWGLTQPISVDYWGKGTQVTVSS
B20: Nb62 (VHH)
VHH: HVQLVESGGGLVQAGGSLRLTCAASGRTFSSSTMDMGWFRQAPGKEREFVAVDAWNDGRTYYADSVKGRFTISRDNAKNTLYLQMNSLKPGDTAVYYCHAVDVSVGGDYWGQGTQVTVSS
B21: Nb93 (VHH)
VHH: EVQLVESGGGLVQPGGSLRLSCAASGFTFSSYAMSWVRQAPGKGREWVAGITPGSGTFYADSVKGRFTISRDNAKNTLSLEINSLKPEDTALYYCAKCRQEFSWDFSSRDPDDFDYWGQGTQVTVSS
B22: Nb91 (VHH)
VHH: HVQLVESGGGLVQPGGSLRLSCAASGLTLNDYAIGWFRQAPGKEREGVSCISSSDGTTYYADSVKGRFTISRDNAKNTVYLQMNSLKPEDTAVYYCATDIAPFYCSWPLRTRLVEYWGQGTQVTVSS
B23: Nb58 (VHH)
VHH: QVQLVESGGGLVQAGGSLRLSCAASGRDFSSTVMGWFRQAPGKERELVAWMTVTYDITYYADSVKGRFTISKDNAKNTVYLQANSLKPDDTAVYYCASGALRVGSFSPDYWGQGTQVTVSS
B24: Nb80 (VHH)
VHH: HVQLVESGGGLVQPGGSLRLSCAASGNFFLINVMSWWRQAPGNEHELHELVATITSDGRTNYGDAVQGRFTISRDNAKNTLYLQMNSLKPEDTAVYYCYAQGQGNREYWGQGTQVTVSS
B25: Nb64 (VHH)
VHH: QVQLVESGGGLVQAGGSLRLSCAVSGRTFSIAGMGWFRQAPGKDREFLGGITWNDGTTWYADSVKGRFTISRDNAKNMLSLRMNSLKPEDTAVYYCAAGPRLGSTPRAYDYWGQGTQVTVSS
B26: Nb43 (VHH)
VHH: EVQLVESGGGLVQAGGSLRLTCAASGRTFSSSTMDMGWFRQAPGKEREFVAVDAWNDGRTYYADSVKGRFTISRDNAKNTLYLQMNSLKPEDTAIYYCNLRQGCSYNGCDEYWGQGTQVTVSS
B27: Nb10 (VHH)
VHH: DVQLVESGGGLVQAGGSLKLSCTASESTFNFNHIDWYRQAPGKQRESVAVITNTDVTNYADSVKGRFTISRDNAKNTVYLQMNSLKPEDTAVYLCNAWRFGPTGVKVDYWGQGTQVTVSS
B28: Nb6 (VHH)
VHH: HVQLVESGGGLVQAGGSLRLSCAASGRTFSTHATGWFRQAPGKEREFLATSVWLDDISRDSTYYAESVKGRFSISRDNAKDTVYLQMNSLKPEDTAVYYCAVKQRVGPGIMSAPTYDYWGQGTQVTVSS
B29: Nb83 (VHH)
VHH: HVQLVESGGGLVQPGGSLRLSCAASGRSFNSYLMGWFRQAPGKEREFVAWISGSPHDIIRYRDSVKDRFTISRDNAKNTVYLQMNSLKPVDTAVYYCAVGSLRVGSFSPDYWGQGTQVTVSS
B30: Nb94 (VHH)
VHH: QVQLVESGGGLVQAGGSLRLSCTASGGTFRSFTMAWFRQAPGKEREFVATLSWTGVGTYYADSVKGRFTISRDIAKNTVYLEMNSLIPEDTAVYYCAASPYTYSLLSRTGDYGYWGQGTQVTVSS
B31: Nb74 (VHH)
VHH: HVQLVESGGGLVQAGGSLRLSCAASGRTFSSHAMAWFRQAPGKEREFVAGISWSGPYYVDSVKGRFTISTDNAKNTVYLQMNSLTPEDTAVYYCASSRGPNLYPHIGDVEYWGQGTQVTVSS
B32: Nb92 (VHH)
VHH: HVQLVESGGGLVQAGGSLRLSCAASGRTFSAYGMGWFRQAPGKEREFVAGIARSGSEYYGDSVKGRFTISRDNAKNTVYLQMASLKAEDTGVYYCAADPTILYHALSQRTQNYRYWGPGTQVTVSS
B33: Nb102 (VHH)
VHH: QVQLVESGGGLVQAGGSLRLSCAASGRTFSNSHMGWFRQAPGKEREFVAVISRSGGSTLYADSVKGRFTISRDNAKNTVYLQMNSLKPEDTAVYYCAASRTAGLTSNRSLYDYWGRGTQVTVSS

Changes are numbered by the printed parent chain.

For this experiment, the target named is SARS-CoV-2 spike receptor-binding domain (RBD) (SARS-CoV-2, UniProt P0DTC2 319-541). Kind of experiment: indirect ELISA on coated RBD ('ELISA affinity'). A general note: In an ELISA, binding on a coated surface is turned into a signal by an enzyme label.
Broadly, the IC50 is the concentration that gives 50% inhibition. The molecule B1 gave an IC50 of 4.03 nM. That is a single-digit nanomolar value. As for B2, the figure is 25.9 nM; as for B3, 0.66 nM. As for B4, the figure is 0.39 nM; as for B5, 0.61 nM. As for B6, the figure is 2.24 nM. Molecule B7 gave an IC50 of 0.35 nM. As for B8, the figure is 0.89 nM; as for B9, 0.04 nM; as for B10, 0.86 nM. As for B11, the figure is 0.84 nM. As for B12, the figure is 0.76 nM; as for B13, 1.49 nM; as for B14, 0.33 nM. Consider B15, for which the 50% inhibitory concentration (IC50) stood at 0.17 nM. On to B16, for which the IC50 came to 6.11 nM. As for B17, the figure is 138 nM. As for B18, the figure is 1.08 nM; as for B19, 0.32 nM. With B20 the figure was 85.7 nM; with B21, 1.15 nM. The molecule B22 gave an IC50 of 1.28 nM. The molecule B23 registered an IC50 of 2.68 nM. This IC50 is about 2.1-fold higher than that of the molecule before. With B24 the figure was 5.09 nM; with B25, 0.45 nM. B26: the IC50 is 664 nM. With B27 the figure was 0.24 nM. Molecule B28 returned an IC50 of 0.57 nM.

Consider B29, for which the IC50 is 1.51 nM. Take B30: the IC50 turned out to be 0.5 nM. In turn, B31 came in with an IC50 of 67.1 nM. Turning to B32, the concentration for half-maximal inhibition (IC50) turned out to be 4.92 nM. Regarding B33, the IC50 was 28.4 nM.
